Source: the DeepSol protein solubility set

Assay: soluble on expression in E. coli; label from the status in PepcDB or PDB records
With “MASLPILTVLEQSQVSPPPDTLGDKSLQLTFFDFFWLRSPPINNLFFYELPITRSQFTETVVPNIKHSLSITLKHFYPFVGKLVVYPAPTKKPEICYVEGDSVAVTFAECNLDLNELTGNHPRNCDKFYDLVPILGESTRLSDCIKIPLFSVQVTLFPNQGIAIGITNHHCLGDASTRFCFLKAWTSIARSGNNDESFLANGTRPLYDRIIKYPMLDEAYLKRAKVESFNEDYVTQSLAGPSDKLRATFILTRAVINQLKDRVLAQLPTLEYVSSFTVACAYIWSCIAKSRNDKLQLFGFPIDRRARMKPPIPTAYFGNCVGGCAAIAKTNLLIGKEGFITAAKLIGENLHKTLTDYKDGVLKDDMESFNDLVSEGMPTTMTWVSGTPKLRFYDMDFGWGKPKKLETVSIDHNGAISINSCKESNEDLEIGVCISATQMEDFVHIFDDGLKAYL” the “soluble on expression in E. coli” value was “soluble”.
In the case of “MGSDKIHHHHHHMLDNRIIDELKTIVGADNVATDRQDLICYGYDATQMEFLPDAVVHPGSPDEVSAVLKLANREQFPVYPRGAGSGFTGGALPKGGGIVLVVTRLNRILRIDTENLIAEVEPGVVTEQFQLEVEKLGLFYPPDPASLKFSTLGGNVAENAGGPRCVKYGVTRDFVMGLEVVLPSGEIIRTGGETYKGVVGYDLTRLLCGSEGTLGVITKIIFKLLPLPEAKKTMMTIFDSIDGAAKAVSTIIGNKIIPTTLEFMDHATLQCVEKRFNLGIPASGRAVLIIEVDGDRDLIEKQAARIQELIKPLGLVECKIAKDAAESEALWKVRRLVSPSLRDVNPDKFNEDIVVPRSKVPDVIRVIEKIQQKYAIPIVNFGHAGDGNIHVNIMIDKSVAGQEEKAHEAIAEVFQAALDLNGTMSGEHGVGLAKQPYIHLELKPAQVATMQAIKKALDPNNILNPGKMFPV”, the “soluble on expression in E. coli” value is reported as “not soluble”.
For “MAHHHHHHMSDKLEDIGEFVLVIGDFHSPMRNLGLPDCFKDLLKTDKIKHVLCTGNVGCNENLELLKNIADSVHITKGDMDNNFDFPEKINIKIGDFKISLVHGHQIIPWGDLNALLQWQKEYDSDIIISGHTHKNSINNFEGKYFINPGSATGAFQPWISNPTPSFILMAISKSSIVVYVYEEKNGKMNVEMSELRKQ”, the “soluble on expression in E. coli” value was “soluble”.
With “MEKIVYEQLKETLYYEKLPNGLDVYILPKQGFNKTFATSTTKYGSVDNTFVPLGKEEMIRVPDGIAHFLEHKLFEKEDHDAFQLFSKQGASANAFTSFTRTAYLFSCTSNVEQNLNTLLNFVQEPYFSEKTVEKEKGIIGQEIQMYQDNPDWRLYFGLIDSLFVKHPIKIDIAGTIESISKITKDLLYECYETFYHPSNMLMFVVGAIDPEKTMDLVHENQAKKDYKNQPEIVRSFEEEPDEVNEKKKIISMPVQTPKCLVGIKATNLKEKGEALLKQEIALTLLLDYLFGKSSVHYESLYNEGLIDDTFSYDYTEENNFGFAMVGGDTKQPDELEERLKSILLNTNYNQLDEAALERVKKKKIGGFLRSLNSPEYIANQFTRYAFNESSLFDALTVLESLTVQDLQEVAQLLLSEEKMSVCQVLPKK” the “soluble on expression in E. coli” value was “not soluble”.
For “DAPLNSVEGFIRQVLGWREFLRHVYRREMPSLAEANQLGANEALPDFYWNGDTDMACLSDVVDGVRERGYSHHIERLMILANFGLIYGVEPAQLNRWFHAGYVDAFHWVTTPNVVEMGLYGAGVFATKPYASSANYVDKMSDYCSGCPYYKTKTTGDGACPFNALYWDFLDRNEETLRSNHRMGLMYSHVDNKSDEELGEIRERAAEIREMATKGE”, the “soluble on expression in E. coli” value was “not soluble”.
In the case of “MGSDKIHHHHHHMRVLFVAPNYYPHIGGVERHVREVSLELQKDGHSITILVPKHDSSYGDFEREGNIEVVRLNKPQTKLFTGLERVLQVAGVSGRFLKADIVNFHDVATMWRYGLWIYPILRVLGKKVYITFHGWEGHFPPKDKIVARRKLAARLADGTMCVGHFIEKWYGTRADVVTYGGVHRSSLPEAHENSVVFVGRLAKDSGIDSYLRAWEWIVRDHPELRLVICGDGAMKKELEDFVCHTGLRNVEFLGLVENPLPYVTDAKVVFTSGYLGILEAFSRKKPVVAVYDNELKKDYLEMMPDSRRLMWIARDSKEVARCVDEALLDREKTERAYRYSLENSWTKVKEDYYRLWNVDGEHGESHGGRGR”, the “soluble on expression in E. coli” value is reported as “not soluble”.
With “MQMSMLTRLHYFNCVVETGSISKASRIFDVQPSSISRQLTALEKELGVLLLKRTSRNIGLTEAGQTYYKYSQKIVSDLDEARCAVNDLQQKPKGNLKVSMAVGFAECCILPMIPTFTKLYPEINLELEMTGRVVDLVEENVDVAIRTGRLRDSNLIALKLTSNNFLLCASPQYITEHGTPKSPFNLTDFECIRYEYAGWRDWYLMNDKPTKLTIKSGLTVRSINGQKQLILNHAGLALMPKWSVINELDNGTLVQVLEQNIFSPYESMSSTYAIYLKRELISPKVRVFIDFIKDHIDYNS” the “soluble on expression in E. coli” value was “not soluble”.
In the case of “METYDLVIIGGGINGAGIARDAAGRGLSVLLCEKDDLASHTSSASTKLIHGGLRYLEYYEFGLVRKALQEREVLLKAAPHIIWPLRFVMPHARDQRPEWMIRAGLFLYDHLAKREVLPGSETVSFARHPSGAPLKDAFKRGFVYSDGWVQDARLVVLNAMDAAEHGAKIHVRTACVAARRDGEHWLATLEREDGSRFEVRARALVNAAGPWVQSLIEDKLAMPSSKSIRLVKGSHIVVKKIFDHPFAYIFQNPDKRIIFAIPYEKDFTLIGTTDVEYHGDPAQVAIDGDEINYLCEMSNRYFHSQITPADVLSTYSGVRPLLDDASDNASSVTRDYALEMDLKGAPLLSVFGGKITTFRKLAEEAVDKIAPLLGCGQATWTAGAPLPGGDMPGADFGRFLQGLRQRHPWLPEALAERWARAYGTRVGKLIGKADSLAGLGKEVLPGLYEAELAYLADAEWATRSEDILWRRSKLKLHLPANAAEVVDAWLAARAQPPREALSALEHHHHHH”, the “soluble on expression in E. coli” value is reported as “not soluble”.
For “MTYELAIGDRAYSSWSLRGWLLFDAFGLPVRVRRARLYTDELPALLADFAPARTVPAMKTSAGTVVAESLAIAEELASRHPEAGIWPADPEHRAVARALAAEMHAGFGALRSHCPMNLRVSYEGCDPPEAVQADLARLERIWAEARARCSTEGPWLCGSYSAADVFFAPVAARIAGYGLAVSPEAQAYVAAHLAHPSFRRWRAMGAVDGADQEFYARPYPPRPWPGPAPLPARAVADGVAENDACPYSGAPVTDLLEIEGRIFGFCNPFCRDKTVADPEAWPAFTALLRHREGS”, the “soluble on expression in E. coli” value was “not soluble”.
With “MGSDKIHHHHHHMSAKKNEIRSKLALLQLATELGSISKACGIMGYSRDSYYRFKKQYETAGERGLKNLSRRKPALKNRVSQAVEDQVIEIALDYPNYGQAKVAELLTARGCAISASGVRTIWVRHNLETKKNRLLALHSKLKQDNNLAPSDQVRIEKLYQLDSNDPIFECLYPGDICVQDTFDLGVISPLGQLYQHTFVDGYSQFAIAVIMPERDSASAAEFLEQTVLPWYATAQGLNINTILTDRGSEFFGKKSQQFSDVLSAHNINHIQMRAYNGPVVNGLAARFQDLAYHEFYEPFLKENKAGSLLDLNQQLANWLYDYNHSHAISGRYTLGKTAAEVLKLTKHLSEASSQCS” the “soluble on expression in E. coli” value was “not soluble”.
In the case of “MARFSGKSVIITGSSNGIGRSAAVIFAKEGAQVTITGRNEDRLEETKQQILKAGVPAEKINAVVADVTEASGQDDIINTTLAKFGKIDILVNNAGANLADGTANTDQPVELYQKTFKLNFQAVIEMTQKTKEHLIKTKGEIVNVSSIVAGPQAHSGYPYYACAKAALDQYTRCTAIDLIQHGVRVNSVSPGAVATGFMGAMGLPETASDKLYSFIGSRKECIPVGHCGKPEEIANIIVFLADRNLSSYIIGQSIVADGGSTLVMGMQTHDLMSVLSQ”, the “soluble on expression in E. coli” value is reported as “soluble”.
For “MSLTIITMIRFYGFSVMLENEQLKIEYGLFNKKKVTVPTKRLQAVVERQSYIRRLFGYTAIHFIITSDFENKKIEDDDNDSGSVPILPFIKRDKAYQIIQNLVPDLSYQQVNEGMPLSGFHEGHHHHHH”, the “soluble on expression in E. coli” value was “not soluble”.
With “MGSDKIHHHHHHMMKRFWFFLESYVFVWTNHEAVLLYDSLSGKGVTWKLTDPVRTIVMELMKKENLYCMELTEDDLNVPEVTEFVSEIRRNFIGDLYSQEEFRQKPLVIVPEVSVNENLENDVETMNNLELFGQKIVNNLRVVTMRLTGECSINCRYCQTVDKQIVWCRKQDNRLSYNEICRLLEQLKHTPVTLINFVGGNVLSYPFLDELLNELKKHSFGKCFYLYYKQSVDYEQIRAKLLNDPSVSIKFLIDYPVNEYAISACVALPNERVEYCFAVTSEEEFQEVSRIIDVYKLKANIYPFYTIDNLDFFEKYVFQTLEDVMALCRTKKDIFAHQLVNTHFFGTLYIDCDGKVYPNFNSKSIGTIDGYVKDWVFQEMKQGKMWHWTRDSLPACKECLYKYLCPSPSNYELVIGKPNLCHVKPWKC” the “soluble on expression in E. coli” value was “not soluble”.
In the case of “MAPQNKPYFTYNNEIIGEATQSNPLGNVVRTTISFKSDDKVSDLISTISKAVQFHKNNSASGENVTINENDFINQLKANGVTVKTVQPSNKNEKAYEAIDKVPSTSFNITLSATGDNNQTATIQIPMVPQGASTPTDTTQNPQINWTKGGQAQSSSLNGQVFQVAVGSNFNPLNFTNSNGENIIVSAQQSKNNTTFASIEATSNPVNTSEAGRYYNVTLTATGNTGKKTTATYTVLITSSQKQTLYGNGESTISTYSIYGNNVLSNSTTFKDGDQVYVSDQTKTVGGVSYSQVSPKSKNDANSSNIWVKTSALVKPAGDTNVKTYPVMVDSRAYDKNGNYLGHMYYAYDNIDIVPTVVTINGKTYYKVANKDEYVRVTNITGNQRTLKHNAYIYWSSYRRTPGTGKMYRGQTVTTYGPQMKFKNGKKYYRIEGCRNNNKRYIKAVNFYLEHHHHHH”, the “soluble on expression in E. coli” value is reported as “soluble”.
With “MLWSGCRRFGARLGCLPGGLRVLVQTGHRSLTSCIDPSMGLNEEQKEFQKVAFDFAAREMAPNMAEWDQKELFPVDVMRKAAQLGFGGVYIQTDVGGSGLSRLDTSVIFEALATGCTSTTAYISIHNMCAWMIDSFGNEEQRHKFCPPLCTMEKFASYCLTEPGSGSDAASLLTSAKKQGDHYILNGSKAFISGAGESDIYVVMCRTGGPGPKGISCIVVEKGTPGLSFGKKEKKVGWNSQPTRAVIFEDCAVPVANRIGSEGQGFLIAVRGLNGGRINIASCSLGAAHASVILTRDHLNVRKQFGEPLASNQYLQFTLADMATRLVAARLMVRNAAVALQEERKDAVALCSMAKLFATDECFAICNQALQMHGGYGYLKDYAVQQYVRDSRVHQILEGSNEVMRILISRSLLQE” the “soluble on expression in E. coli” value was “not soluble”.
For “MFFCTILSFFDFGRYFMEKNQYEIYHENKKHTPNDFPYNTYLCSIPLDFKSVNLHWHNEVELIVIKKGQGLVNVNLVTYTVNAGDVVFVFPGQLHSISQKDYSIMEYENILFKSSLLKSSGYDLCNDKFIQPLLSGNLNIYPVINSNFDFHDSLYSLINEIDKLCDKRPYAYQLAVKSYLFQIFYLLISNCGLNQIKPISKKALEK”, the “soluble on expression in E. coli” value was “not soluble”.
For “MGHHHHHHSHMAAAVAMETDDAGNRLRFQLELEFVQCLANPNYLNFLAQRGYFKDKAFVNYLKYLLYWKDPEYAKYLKYPQCLHMLELLQYEHFRKELVNAQCAKFIDEQQILHWQHYSRKRMRLQQALAEQQQQNNTSGK”, the “soluble on expression in E. coli” value was “soluble”.
With “MGSDKIHHHHHHMCYNNSMNERYIRFNPNIAKQKPSNKDKCPFCDKSQLGKILDVKDDMIWVENKYPTLEETYQTLVIESNDHNGDISVYSESKMRQLLDYLLSKWQLMEESGHYRSVVLYRNFGPLSGGSLRHPHSQIVGLKNVDAYETLNLDWFDGIEVCSETSQQAEISIANRPMLDFTEFTIKVSKLENAILIADSLPILCHYILNEFLGGRCKSYNLFFYKHDGGLICKIVPRFIVSPYQIGYAIHQVNLPDELEKIKEALRAKYYL” the “soluble on expression in E. coli” value was “not soluble”.
With “MTGITIFYGDNIIRYVVNTKKGLRPYFKQLPDNYQAKFELNLMSKFSNFIINKPFSAINTAARHIFSRYLLENKHLFYQYFKISNTGIDHLEQLINVNFFSSDRTSFCECNRFP” the “soluble on expression in E. coli” value was “not soluble”.
With “MNLRGILPFAHDTLRKVVRSGDYVVDATCGNGHDTLLLAELVGINGHVLGFDIQQLAIDATNTRLENAGVSSQVELVCASHARIPEYTSKPVRAAIFNLGYLPGGDKEITTTADSTLESIGHLMELLEVGGVIILVIYHGHPAGKQEKDAVMTFCEAIPQQDFHVLSYNFINQKNDAPFVIIIEKRKPRQSLEHHHHHH” the “soluble on expression in E. coli” value was “soluble”.
